Experiment [1] has as its target T1, biotinylated PCSK9 (UniProt Q8NBP7 31-692, limits assumed, biotinylated (site not stated)).
T1 construct: also called europium-labeled PCSK9
As to the kind of experiment: method not stated; KD of the labelled probe of the Alexa FRET Standard assay.

Experiment [2] addresses T1, biotinylated PCSK9. As to the kind of experiment: method not stated; KD of the labelled probe of the Alexa FRET Plus assay.

*1 amine or outer side, *2 acyl side, *3 side chain or, on linkers, in order; H or OH if unused. Bridges are numbered along the chain shown (N, C = ends). [ ]: non-standard residue; d: D form. AlexaFluor 647 = AlexaFluor 647 dye coupled as NHS ester to the Lys amine; Tyr(Me) = O-methyltyrosine, COc1ccc(C[C@H](N[*:1])C(=O)[*:2])cc1; Trp(5-F) = N[C@@H](Cc1c[nH]c2ccc(F)cc12)C(=O)O; mXylylene = c1cc(C[*:1])cc(C[*:2])c1; αMeP = C[C@@]1(C(=O)O)CCCN1; Mpa = O=C(O)CCS

This is an account of results in patent US20210163538A1 (published 2021).

T1 sequence (Q8NBP7 31-692 limits assumed): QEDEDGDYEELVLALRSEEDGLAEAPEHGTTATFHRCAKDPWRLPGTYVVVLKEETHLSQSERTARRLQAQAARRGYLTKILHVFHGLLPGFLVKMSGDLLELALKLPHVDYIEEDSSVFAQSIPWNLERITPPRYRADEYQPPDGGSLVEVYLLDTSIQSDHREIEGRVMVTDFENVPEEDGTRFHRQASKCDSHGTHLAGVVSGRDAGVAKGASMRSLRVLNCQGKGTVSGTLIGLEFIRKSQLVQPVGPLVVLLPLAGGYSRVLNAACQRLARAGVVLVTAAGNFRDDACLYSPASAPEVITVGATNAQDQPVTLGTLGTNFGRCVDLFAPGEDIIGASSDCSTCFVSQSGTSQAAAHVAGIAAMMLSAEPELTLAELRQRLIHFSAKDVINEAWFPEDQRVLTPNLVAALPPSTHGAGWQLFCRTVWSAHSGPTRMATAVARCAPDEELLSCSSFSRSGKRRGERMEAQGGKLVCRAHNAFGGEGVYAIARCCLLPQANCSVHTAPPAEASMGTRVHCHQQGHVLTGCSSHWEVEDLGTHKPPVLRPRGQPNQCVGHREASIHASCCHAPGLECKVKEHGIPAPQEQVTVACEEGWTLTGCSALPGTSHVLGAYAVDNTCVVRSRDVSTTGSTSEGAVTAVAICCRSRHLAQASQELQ

B1: Reagent A (peptide)
peptide: [Mpa]K(AlexaFluor 647)G[Trp(5-F)][Trp(5-F)]DHY[αMeP]C-NH2
modifications: linker N-10 via mXylylene
notes: also called AlexaFluor647 (AF) tagged cyclic peptide; AF cyclic peptide
As for B1, in the experiment with biotinylated PCSK9 [1], the Kd (usually the concentration at which binding is half-saturated) was 83 nM.

B2: Reagent B (peptide)
peptide: [Mpa]K(AlexaFluor 647)[dA][Trp(5-F)][Trp(5-F)]DH[Tyr(Me)][αMeP]C-NH2
modifications: linker N-10 via mXylylene
notes: as for B1
As for B2, the Kd in the experiment with biotinylated PCSK9 [2] turned out to be 35 nM.
